From patent US20240158510A1 (GOVERNING COUNCIL OF THE UNIVERSITY OF TORONTO, published 2024)
Like-named read-outs stand apart in the source and are kept apart here.

Assays:
[1] = target: T1, integrin αvβ1 expressed on CHO cells (UniProt P06756 31-1048; P05556 21-798, limits assumed); experiment: cell-based or functional assay
[2] = target: T2, integrin αvβ6 expressed on CHO cells (UniProt P06756 31-1048; P18564 22-788, limits assumed); experiment: cell-based or functional assay
[3] = target: T3, integrin αvβ8 expressed on CHO cells (UniProt P06756 31-1048; P26012 43-769, limits assumed); experiment: cell-based or functional assay
[4] = target: T1, integrin αvβ1 expressed on CHO cells; experiment: cell-based or functional assay; remark: listed apart in the source
[5] = target: T4, integrin αvβ3 expressed on CHO cells (UniProt P06756 31-1048; P05106 27-788, limits assumed); experiment: cell-based or functional assay
[6] = target: T5, integrin αvβ5 expressed on CHO cells (UniProt P06756 31-1048; P18084 24-799, limits assumed); experiment: cell-based or functional assay
[7] = target: T1, integrin αvβ1 expressed on CHO cells; experiment: flow cytometry titration on AvB1 CHO cells
Protocol: (§1) Adherent cells were brought into suspension using PBS supplemented with 10 mM ethylenediaminetetraacetic acid (EDTA). The cells were washed with PBS, resuspended in PBS supplemented with 1% BSA, and incubated for 15 minutes at 4° C. The cells were labelled with 50 μl of Fab-phage culture supernatant, or 500 nM Fab, or IgG for 30 minutes at 4° C., then washed with PBS and resuspended in PBS supplemented with 1% BSA. Next, the cells were labelled with anti-Fab (for Fab-phage), or anti-Flag (for Fabs) or anti-Fc (for IgGs) conjugated Alexa-488 secondary Ab according to manufacturer's instructions. Data were collected using a CytoFLEX-S flow-cytometer using a 488-nm laser with 530/25 nm filter settings. The cells were analyzed in PBS, and all acquired live events were greater than 10,000 cells per sample. Quantitation analysis was carried out using FlowJo v10.2 Software. For Ab cellular titration analysis, the Abs were added to antigen positive cells in duplicate samples from a range of 500 pM to 1 μM. The mean fluorescence signal values were subtracted from the control antigen negative cells signals, and EC50 determined using Graph-pad Prism, where x is the Fab concentration: […]

[8] = target: T4, integrin αvβ3 expressed on CHO cells; experiment: flow cytometry titration on AvB3 CHO cells
Protocol: as §1

[9] = target: T5, integrin αvβ5 expressed on CHO cells; experiment: flow cytometry titration on AvB5 CHO cells
Protocol: as §1

[10] = target: T2, integrin αvβ6 expressed on CHO cells; experiment: flow cytometry titration on AvB6 CHO cells
Protocol: as §1

[11] = target: T3, integrin αvβ8 expressed on CHO cells; experiment: flow cytometry titration on AvB8 CHO cells
Protocol: as §1

[12] = target: T1, integrin αvβ1 expressed on CHO cells; experiment: flow cytometry titration on integrin-αvβ1 CHO cells (curves in FIG. 12K)
Protocol: as §1

[13] = target: T1, integrin αvβ1 expressed on CHO cells; experiment: cell-based or functional assay; remark: listed apart in the source
[14] = target: T1, integrin αvβ1 expressed on CHO cells; experiment: cell-based or functional assay; remark: listed apart in the source
[15] = target: T3, integrin αvβ8 expressed on CHO cells; experiment: cell-based or functional assay; remark: listed apart in the source
[16] = target: T1, integrin αvβ1 expressed on CHO cells; experiment: cell-based or functional assay; remark: listed apart in the source
[17] = target: T4, integrin αvβ3 expressed on CHO cells; experiment: cell-based or functional assay; remark: listed apart in the source
[18] = target: T5, integrin αvβ5 expressed on CHO cells; experiment: cell-based or functional assay; remark: listed apart in the source
[19] = target: T1, integrin αvβ1 expressed on CHO cells; experiment: flow cytometry titration on integrin-αvβ1 CHO cells; binder taken from the context of FIG. 10 and Example 2
Protocol: as §1

T5 sequence (P06756 31-1048 limits assumed, chain 1 of 2): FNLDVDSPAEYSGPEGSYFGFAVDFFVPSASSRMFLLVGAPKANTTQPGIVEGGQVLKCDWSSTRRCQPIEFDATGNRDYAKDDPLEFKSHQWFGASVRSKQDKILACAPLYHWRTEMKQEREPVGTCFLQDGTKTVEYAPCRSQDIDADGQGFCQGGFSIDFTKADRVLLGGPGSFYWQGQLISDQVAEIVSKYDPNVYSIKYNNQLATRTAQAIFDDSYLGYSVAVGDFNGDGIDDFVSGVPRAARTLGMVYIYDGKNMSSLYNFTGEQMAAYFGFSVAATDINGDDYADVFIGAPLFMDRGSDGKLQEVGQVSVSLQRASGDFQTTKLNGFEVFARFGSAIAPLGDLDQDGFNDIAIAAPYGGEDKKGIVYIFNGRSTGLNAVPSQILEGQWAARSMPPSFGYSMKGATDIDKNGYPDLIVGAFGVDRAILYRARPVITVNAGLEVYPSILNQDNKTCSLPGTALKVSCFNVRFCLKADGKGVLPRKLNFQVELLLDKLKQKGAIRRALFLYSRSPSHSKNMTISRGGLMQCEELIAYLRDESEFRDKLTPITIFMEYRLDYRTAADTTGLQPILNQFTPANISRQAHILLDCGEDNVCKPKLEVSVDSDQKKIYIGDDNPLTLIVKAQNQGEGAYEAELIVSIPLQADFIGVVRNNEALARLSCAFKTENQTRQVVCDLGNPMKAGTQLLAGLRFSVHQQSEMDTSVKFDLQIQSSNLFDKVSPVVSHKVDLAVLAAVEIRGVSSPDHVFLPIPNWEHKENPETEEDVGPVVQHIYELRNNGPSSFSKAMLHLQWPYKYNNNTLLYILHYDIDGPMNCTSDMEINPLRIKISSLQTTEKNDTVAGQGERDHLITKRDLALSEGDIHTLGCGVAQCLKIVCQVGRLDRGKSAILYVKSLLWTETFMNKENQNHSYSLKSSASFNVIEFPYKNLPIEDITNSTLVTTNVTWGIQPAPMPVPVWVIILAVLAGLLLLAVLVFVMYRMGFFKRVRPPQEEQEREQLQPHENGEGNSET
T5 sequence (P18084 24-799 limits assumed, chain 2 of 2): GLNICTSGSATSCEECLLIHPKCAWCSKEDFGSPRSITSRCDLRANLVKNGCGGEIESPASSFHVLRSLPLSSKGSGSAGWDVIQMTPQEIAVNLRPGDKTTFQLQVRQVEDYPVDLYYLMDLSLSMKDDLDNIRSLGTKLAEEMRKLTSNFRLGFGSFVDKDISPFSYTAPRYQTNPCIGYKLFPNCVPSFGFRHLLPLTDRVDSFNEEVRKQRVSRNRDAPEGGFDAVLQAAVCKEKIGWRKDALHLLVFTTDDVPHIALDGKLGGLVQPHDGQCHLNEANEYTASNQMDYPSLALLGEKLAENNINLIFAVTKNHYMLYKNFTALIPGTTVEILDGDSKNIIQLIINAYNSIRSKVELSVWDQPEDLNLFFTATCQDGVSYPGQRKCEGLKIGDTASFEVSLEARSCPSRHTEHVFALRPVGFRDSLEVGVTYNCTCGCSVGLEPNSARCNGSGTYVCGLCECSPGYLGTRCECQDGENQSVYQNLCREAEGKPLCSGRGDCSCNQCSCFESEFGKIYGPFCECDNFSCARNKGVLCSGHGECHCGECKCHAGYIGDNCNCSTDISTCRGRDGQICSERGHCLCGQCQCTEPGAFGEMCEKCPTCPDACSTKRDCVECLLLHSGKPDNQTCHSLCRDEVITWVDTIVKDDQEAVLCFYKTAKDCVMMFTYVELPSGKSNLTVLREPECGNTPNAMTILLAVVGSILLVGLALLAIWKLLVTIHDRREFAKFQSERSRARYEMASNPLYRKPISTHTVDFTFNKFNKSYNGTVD
T1 sequence (P06756 31-1048 limits assumed, chain 1 of 2): as the sequence (P06756 31-1048 limits assumed, chain 1 of 2) above
T1 sequence (P05556 21-798 limits assumed, chain 2 of 2): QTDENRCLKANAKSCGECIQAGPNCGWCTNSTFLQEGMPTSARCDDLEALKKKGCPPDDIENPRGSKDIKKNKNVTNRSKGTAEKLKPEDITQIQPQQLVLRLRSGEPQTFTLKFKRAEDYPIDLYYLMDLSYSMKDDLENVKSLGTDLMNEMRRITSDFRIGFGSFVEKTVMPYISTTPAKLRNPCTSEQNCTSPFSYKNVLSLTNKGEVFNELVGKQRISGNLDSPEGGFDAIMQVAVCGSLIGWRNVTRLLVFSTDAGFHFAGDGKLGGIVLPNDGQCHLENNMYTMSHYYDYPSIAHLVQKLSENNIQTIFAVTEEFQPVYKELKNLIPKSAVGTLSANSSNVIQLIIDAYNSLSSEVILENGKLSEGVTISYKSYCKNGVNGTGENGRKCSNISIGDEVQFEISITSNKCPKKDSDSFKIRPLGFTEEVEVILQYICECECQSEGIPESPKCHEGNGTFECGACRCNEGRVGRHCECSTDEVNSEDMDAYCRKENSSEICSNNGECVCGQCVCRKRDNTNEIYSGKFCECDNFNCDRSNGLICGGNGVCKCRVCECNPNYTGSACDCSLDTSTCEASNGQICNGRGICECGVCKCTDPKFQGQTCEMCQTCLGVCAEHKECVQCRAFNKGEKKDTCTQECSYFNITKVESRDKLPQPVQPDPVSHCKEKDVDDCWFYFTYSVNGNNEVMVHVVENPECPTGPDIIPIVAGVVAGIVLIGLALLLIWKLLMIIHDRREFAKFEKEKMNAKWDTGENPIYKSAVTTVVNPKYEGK
T3 sequence (P06756 31-1048 limits assumed, chain 1 of 2): as the sequence (P06756 31-1048 limits assumed, chain 1 of 2) above
T3 sequence (P26012 43-769 limits assumed, chain 2 of 2): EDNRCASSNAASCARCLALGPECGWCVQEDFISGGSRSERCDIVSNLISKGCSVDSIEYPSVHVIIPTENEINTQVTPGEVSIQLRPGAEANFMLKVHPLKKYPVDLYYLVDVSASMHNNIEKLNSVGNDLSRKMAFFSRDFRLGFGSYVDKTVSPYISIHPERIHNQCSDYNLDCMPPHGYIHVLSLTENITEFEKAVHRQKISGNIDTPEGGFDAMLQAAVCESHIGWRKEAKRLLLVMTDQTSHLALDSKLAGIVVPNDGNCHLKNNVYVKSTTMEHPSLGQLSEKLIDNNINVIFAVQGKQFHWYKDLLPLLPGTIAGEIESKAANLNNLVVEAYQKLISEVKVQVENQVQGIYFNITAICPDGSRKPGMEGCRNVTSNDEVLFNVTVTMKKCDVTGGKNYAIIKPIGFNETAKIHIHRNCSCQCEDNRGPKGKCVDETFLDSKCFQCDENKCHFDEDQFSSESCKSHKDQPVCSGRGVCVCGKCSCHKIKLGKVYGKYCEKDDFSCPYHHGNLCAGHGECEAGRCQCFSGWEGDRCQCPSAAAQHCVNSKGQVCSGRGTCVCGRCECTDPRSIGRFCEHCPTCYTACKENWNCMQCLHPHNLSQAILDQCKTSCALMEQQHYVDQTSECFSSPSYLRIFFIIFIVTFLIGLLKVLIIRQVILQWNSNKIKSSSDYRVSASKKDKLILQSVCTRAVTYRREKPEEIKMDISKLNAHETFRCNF
T4 sequence (P06756 31-1048 limits assumed, chain 1 of 2): as the sequence (P06756 31-1048 limits assumed, chain 1 of 2) above
T4 sequence (P05106 27-788 limits assumed, chain 2 of 2): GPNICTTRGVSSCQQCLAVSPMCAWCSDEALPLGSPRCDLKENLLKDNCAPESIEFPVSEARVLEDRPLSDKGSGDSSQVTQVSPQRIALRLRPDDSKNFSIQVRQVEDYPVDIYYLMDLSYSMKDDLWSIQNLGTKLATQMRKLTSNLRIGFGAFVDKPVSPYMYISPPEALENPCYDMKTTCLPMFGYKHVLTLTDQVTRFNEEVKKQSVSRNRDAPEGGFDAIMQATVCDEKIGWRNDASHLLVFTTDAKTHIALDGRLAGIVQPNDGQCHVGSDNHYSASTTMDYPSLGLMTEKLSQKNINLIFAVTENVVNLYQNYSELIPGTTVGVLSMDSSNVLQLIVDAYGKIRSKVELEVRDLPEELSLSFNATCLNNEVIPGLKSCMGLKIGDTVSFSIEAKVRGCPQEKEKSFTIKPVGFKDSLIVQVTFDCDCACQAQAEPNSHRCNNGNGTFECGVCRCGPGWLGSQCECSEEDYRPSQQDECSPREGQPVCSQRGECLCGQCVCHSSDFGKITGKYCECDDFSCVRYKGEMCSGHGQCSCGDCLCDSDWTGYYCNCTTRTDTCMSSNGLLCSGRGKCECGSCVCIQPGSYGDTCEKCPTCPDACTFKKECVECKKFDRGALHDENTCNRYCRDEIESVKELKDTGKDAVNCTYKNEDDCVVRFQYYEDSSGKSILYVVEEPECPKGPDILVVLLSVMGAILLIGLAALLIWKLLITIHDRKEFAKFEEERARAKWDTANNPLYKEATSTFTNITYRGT
T2 sequence (P06756 31-1048 limits assumed, chain 1 of 2): as the sequence (P06756 31-1048 limits assumed, chain 1 of 2) above
T2 sequence (P18564 22-788 limits assumed, chain 2 of 2): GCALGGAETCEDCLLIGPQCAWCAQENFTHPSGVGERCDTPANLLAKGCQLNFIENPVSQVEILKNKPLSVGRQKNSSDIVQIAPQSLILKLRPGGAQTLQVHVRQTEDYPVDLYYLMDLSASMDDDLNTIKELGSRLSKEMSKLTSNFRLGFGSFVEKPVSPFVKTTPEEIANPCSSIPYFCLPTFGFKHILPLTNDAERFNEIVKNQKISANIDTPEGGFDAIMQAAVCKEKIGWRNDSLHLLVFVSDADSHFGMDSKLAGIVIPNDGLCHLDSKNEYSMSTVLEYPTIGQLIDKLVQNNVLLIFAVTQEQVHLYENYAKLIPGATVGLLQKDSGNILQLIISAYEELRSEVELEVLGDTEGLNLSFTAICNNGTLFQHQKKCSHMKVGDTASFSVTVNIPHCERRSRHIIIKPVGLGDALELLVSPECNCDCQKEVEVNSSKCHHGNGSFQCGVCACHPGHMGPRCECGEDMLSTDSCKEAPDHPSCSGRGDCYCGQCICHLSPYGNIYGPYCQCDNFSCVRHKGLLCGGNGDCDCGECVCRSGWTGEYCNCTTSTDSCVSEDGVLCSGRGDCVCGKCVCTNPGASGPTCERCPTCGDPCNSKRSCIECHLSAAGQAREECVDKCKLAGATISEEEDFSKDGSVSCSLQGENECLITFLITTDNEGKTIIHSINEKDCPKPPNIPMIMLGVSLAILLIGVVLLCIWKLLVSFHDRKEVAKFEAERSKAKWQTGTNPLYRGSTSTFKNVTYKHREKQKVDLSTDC

Row | IC50, inhibition of integrin-αvβ1 CHO cell adhesion to LAP-TGFβ (curves in FIG. 12L) [1] [nM] | IC50, inhibition of CHO cell adhesion to LAP-TGFβ [2] [nM] | IC50, inhibition of CHO cell adhesion to LAP-TGFβ [3] [nM] | IC50, inhibition of CHO cell adhesion to LAP-TGFβ [4] [nM] | IC50, inhibition of CHO cell adhesion to LAP-TGFβ [5] [nM] | IC50, inhibition of CHO cell adhesion to LAP-TGFβ [6] [nM] | EC50 [7] [nM] | EC50 [8] [nM] | EC50 [9] [nM] | EC50 [10] [nM] | EC50 [11] [nM] | EC50 [12] [nM] | adhesion of integrin-αvβ1 CHO cells to LAP-TGFβ, normalised confluence, number over the bar, untreated = 100 [13] [%] | IC50, inhibition of integrin-αvβ1 CHO cell adhesion to LAP-TGFβ; no antibody named on the panel, binder taken from the context of FIG. 10 [14] [nM] | IC50, inhibition of CHO cell adhesion to LAP-TGFβ [15] [nM] | IC50, inhibition of CHO cell adhesion to LAP-TGFβ [16] [nM] | IC50, inhibition of CHO cell adhesion to LAP-TGFβ [17] [nM] | IC50, inhibition of CHO cell adhesion to LAP-TGFβ [18] [nM] | EC50 [19] [nM] | Binder
1 | 2.9 | 2.1 | 1.3 | 1.6 | 2.4 | 4.1 | 2.6 | 6.8 | 1.2 | 1.7 | 8.9 | 2.6 | – | – | – | – | – | – | – | IgG 11867 (antibody, V domains shown, also called 11867 hG1) VH: EVQLVESGGGLVQPGGSLRLSCAASGFDFDSYAIHWVRQAPGKGLEWVAYFYPGHDYSTYADSVKGRFTISADTSKNTAYLQMNSLRAEDTAVYYCARPSPYFSWHQAMDYWGQGTLVTVSS VL: DIQMTQSPSSLSASVGDRVTITCRASQSVSSAVAWYQQKPGKAPKLLIYSASSLYSGVPSRFSGSRSGTDFTLTISSLQPEDFATYYCQQATGSEVTFGQGTKVEIKR
2 | – | – | – | – | – | – | – | – | – | – | – | – | 16.7 | 2.91 | 55.1 | 9.83 | 24.2 | 18.2 | 2.39 | 10404/10392 (bispecific antibody, human IgG1, kappa) heavy chain 10392, knob: EVQLVESGGGLVQPGGSLRLSCAASGFNIYYSSIHWVRQAPGKGLEWVASISSSSGSTSYADSVKGRFTISADTSKNTAYLQMNSLRAEDTAVYYCARSYYGGGYPYALDYWGQGTLVTVSSASTKGPSVFPLAPSSKSTSGGTAALGCLVKDYFPEPVTVSWNSGALTSGVHTFPAVLQSSGLYSLSSVVTVPSSSLGTQTYICNVNHKPSNTKVDKKVEPKSCDKTHTCPPCPAPELLGGPSVFLFPPKPKDTLMISRTPEVTCVVVDVSHEDPEVKFNWYVDGVEVHNAKTKPREEQYNSTYRVVSVLTVLHQDWLNGKEYKCKVSNKALPAPIEKTISKAKGQPREPMVFDLPPSREEMTKNQVSLWCMVKGFYPSDIAVEWESNGQPENNYKTTPPVLDSDGSFFLYSKLTVDKSRWQQGNVFSCSVMHEALHNHYTQKSLSLSPGK heavy chain 10404, hole: EVQLVESGGGLVQPGGSLRLSCAASGFNLYSSSIHWVRQAPGKGLEWVAYIYPSYGYTSTYADSVKGRFTISADTSKNTAYLQMNSLRAEDTAVYYCARPAPYYSWYPAMDYWGQGTLVTVSSASTKGPSVFPLAPSSKSTSGGTAALGCLVKDYFPEPVTVSWNSGALTSGVHTFPAVLQSSGLYSLSSVVTVPSSSLGTQTYICNVNHKPSNTKVDKKVEPKSCDKTHTCPPCPAPELLGGPSVFLFPPKPKDTLMISRTPEVTCVVVDVSHEDPEVKFNWYVDGVEVHNAKTKPREEQYNSTYRVVSVLTVLHQDWLNGKEYKCKVSNKALPAPIEKTISKAKGQPREPQVYTLPPIRELMTSNQVSLSCAVKGFYPSDIAVEWESNGQPENNYKTTPPVLDSDGSFFLVSKLTVDKSRWQQGNVFSCSVMHEALHNHYTQKSLSLSPGK light chain 10404: DIQMTQSPSSLSASVGDRVTITCRASQSVSSAVAWYQQKPGKAPKLLIYSASSLYSGVPSRFSGSRSGTDFTLTISSLQPEDFATYYCQQASGSPFTFGQGTKVEIKRTVAAPSVFIFPPSDEQLKSGTASVVCLLNNFYPREAKVQWKVDNALQSGNSQESVTEQDSKDSTYSLSSTLTLSKADYEKHKVYACEVTHQGLSSPVTKSFNRGEC
